Measured values: US20230203131A1 (OSAKA UNIVERSITY, published 2023)
Each block holds one molecule with its values, some of them ahead of it.

What was measured:
[1] = molecular target: Perlecan-fused Chimera-511 (Chimera-511P), not treated with thrombin (human) (UniProt P02675); assay: solid-phase integrin binding assay (ELISA): Chimera-511P coated, α6β1 integrin titrated, as in Example 1 (5)
α6β1 integrin [2] = molecular target: T1, α6β1 integrin (UniProt P23229 24-1011; P05556 21-728); assay: solid-phase integrin binding assay (ELISA): Chimera-511 coated at 10 nM, α6β1 integrin titrated 0.001-100 nM in 1 mM MnCl2
T1 construct: Soluble protein added to plates and detected with a biotin-labeled Velcro antibody
Experimental: (§1) The plates were incubated with gentle agitation at 4° C. overnight for coating.
(§2) Integrin binding assay was performed according to the method of Ido et al. (Hiroyuki Ido et al. J. Biol. Chem., 282, 11144-11154, 2007). The specific procedure was as follows. […] Next, TBST supplemented with 1% BSA was added at 200 μL/well, and the plates were incubated with agitation on a shaker (B. Braun Biotech International CERTOMAT MT) at room temperature for 1 hour for blocking. The plates were washed once with 200 μL/well of 0.1% BSA/TBST. α6β1 integrin was diluted to final concentrations of 0.001 nM, 0.003 nM, 0.01 nM, 0.03 nM, 0.1 nM, 0.3 nM, 1 nM, 3 nM, 10 nM, 30 nM, and 100 nM in 0.1% BSA/TBST containing 1 mM MnCl₂ or 10 mM EDTA. The diluted α6β1 integrin solutions were added to the plates at 50 μL/well and allowed to react with agitation using the shaker at room temperature for 3 hours.
(§3) After the reaction, the plates were washed three times with 200 μL/well of 1 mM MnCl₂/0.1% BSA/TBST or 10 mM EDTA/0.1% BSA/TBST. A 1.5 μg/mL solution of a biotin-labeled Velcro antibody (prepared as described in Takagi, J., Erickson, H. P. and Springer, T. A. (2001) Nat. Struct. Biol. 8, 412-416) in 1 mM MnCl₂/0.1% BSA/TBST was added at 50 μL/well and allowed to react with agitation using the shaker at room temperature for 30 minutes. […]

α6β1 integrin [3] = molecular target: T1, α6β1 integrin; assay: solid-phase integrin binding assay (ELISA): LM511E8 coated at 10 nM, α6β1 integrin titrated 0.001-100 nM in 1 mM MnCl2
Experimental: as §1, §2, §3

T1 sequence (P23229 other isoform, or with tags, fused parts or gaps, chain 1 of 2): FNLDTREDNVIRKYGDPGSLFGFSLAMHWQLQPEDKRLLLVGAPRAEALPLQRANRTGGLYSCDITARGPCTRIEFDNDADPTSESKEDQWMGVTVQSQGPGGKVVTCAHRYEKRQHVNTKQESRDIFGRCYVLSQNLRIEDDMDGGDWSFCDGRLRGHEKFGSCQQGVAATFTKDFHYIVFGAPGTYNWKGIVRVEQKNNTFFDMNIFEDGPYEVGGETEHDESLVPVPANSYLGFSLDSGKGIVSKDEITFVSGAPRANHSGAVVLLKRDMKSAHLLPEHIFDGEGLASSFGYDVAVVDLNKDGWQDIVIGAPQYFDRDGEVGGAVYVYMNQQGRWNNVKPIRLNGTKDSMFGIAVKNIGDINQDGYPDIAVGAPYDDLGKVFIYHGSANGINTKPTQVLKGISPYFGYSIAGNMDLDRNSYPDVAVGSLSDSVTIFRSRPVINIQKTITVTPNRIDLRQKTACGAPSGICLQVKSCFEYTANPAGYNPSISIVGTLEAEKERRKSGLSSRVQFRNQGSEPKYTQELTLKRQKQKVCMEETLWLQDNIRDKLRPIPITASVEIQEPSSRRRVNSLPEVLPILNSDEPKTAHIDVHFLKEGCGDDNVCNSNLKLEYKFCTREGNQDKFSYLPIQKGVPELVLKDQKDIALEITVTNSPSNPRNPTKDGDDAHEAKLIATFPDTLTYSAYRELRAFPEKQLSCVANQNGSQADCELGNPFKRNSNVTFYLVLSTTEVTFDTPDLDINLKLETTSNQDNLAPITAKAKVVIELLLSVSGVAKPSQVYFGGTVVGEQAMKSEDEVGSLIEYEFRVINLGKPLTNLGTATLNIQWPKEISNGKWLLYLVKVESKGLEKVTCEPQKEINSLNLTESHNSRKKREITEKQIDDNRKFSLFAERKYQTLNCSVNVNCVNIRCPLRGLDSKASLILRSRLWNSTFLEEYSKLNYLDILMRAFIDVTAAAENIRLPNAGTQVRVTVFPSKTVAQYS
T1 sequence (P05556 21-728, chain 2 of 2): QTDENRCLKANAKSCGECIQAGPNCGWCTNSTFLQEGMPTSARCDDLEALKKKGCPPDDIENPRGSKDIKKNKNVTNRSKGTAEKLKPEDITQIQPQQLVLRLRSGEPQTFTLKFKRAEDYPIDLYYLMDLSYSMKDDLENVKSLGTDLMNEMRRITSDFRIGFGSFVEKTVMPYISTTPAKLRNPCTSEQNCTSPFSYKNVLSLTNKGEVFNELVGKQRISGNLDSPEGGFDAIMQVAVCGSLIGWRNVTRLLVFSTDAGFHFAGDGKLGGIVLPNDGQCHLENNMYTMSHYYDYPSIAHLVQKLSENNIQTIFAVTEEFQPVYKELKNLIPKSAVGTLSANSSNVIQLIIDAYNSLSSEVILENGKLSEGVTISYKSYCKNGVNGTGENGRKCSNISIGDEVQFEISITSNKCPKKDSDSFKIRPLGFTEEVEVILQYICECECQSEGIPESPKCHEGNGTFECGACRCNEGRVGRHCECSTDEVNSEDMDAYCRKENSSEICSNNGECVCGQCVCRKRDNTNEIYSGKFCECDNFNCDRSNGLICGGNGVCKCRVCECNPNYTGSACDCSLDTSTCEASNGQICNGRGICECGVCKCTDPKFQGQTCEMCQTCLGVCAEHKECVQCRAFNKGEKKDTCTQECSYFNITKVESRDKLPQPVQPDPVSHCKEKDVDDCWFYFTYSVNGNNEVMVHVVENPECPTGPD

- Kd [1]: 0.9 nM
Molecule: α6β1 integrin (from UniProt P23229 24-1011; P05556 21-728) (receptor)

- Kd (α6β1 integrin [2]): 0.58 nM
B1: Chimera-511 (chimeric protein having human fibrinogen fused to an integrin-binding domain of human laminin 511), not treated with thrombin (other)
chain 1: QGVNDNEEGFFSARGHRPLDKKREEAPSLRPAPPPISGGGYRARPAKAAATQKKVERKAPDAGGCLHADPDLGVLCPTGCQLQEALLQQERPIRNSVDELNNNVEAVSQTSSSSFQYMYLLKDLWQKRQKQVKDNENVVNEYSSELEKHQLYIDETVNSNIPTNIGRVRELIAQARGAASKVKVPMKFNGRSGVQLRTPRDLADLAAYTALKFYLQGPEPEPGQGTEDRFVMYMGSRQATGDYMGVSLRDKKVHWVYQLGEAGPAVLSIDEDIGEQFAAVSLDRTLQFGHMSVTVERQMIQETKGDTVAPGAEGLLNLRPDDFVFYVGGYPSTFTPPPLLRFPGYRGCIEMDTLNEEVVSLYNFERTFQLDTAVDRPCARSKSTGDPWLTDGSYLDGTGFARISFDSQISTTKRFEQELRLVSYSGVLFFLKQQSQFLCLAVQEGSLVLLYDFGAGLKKAVPLQPPPPLTSASKAIQVFLLGGSRKRVLVRVERATVYSVEQDNDLELADAYYLGGVPPDQLPPSLRRLFPTGGSVRGCVKGIKALGKYVDLKRLNTTGVSAGCTADLLVGRAMTFHGHGFLRLALSNVAPLTGNVYSGFGFHSAQDSALLYYRASPDGLCQVSLQQGRVSLQLLRTEVKTQAGFADGAPHYVAFYSNATGVWLYVDDQLQQMKPHRGPPPELQPQPEGPPRLLLGGLPESGTIYNFSGCISNVFVQRLLGPQRVFDLQQNLGSVNVSTGCAPALQAQTPGLGPRGLQAHHHHHHHHHH
chain 2: ADSGEGDFLAEGGGVRGPRVVERHQSACKDSDWPFCSDEDWNYKCPSGCRMKGLIDEVNQDFTNRINKLKNSLFEYQKNNKDSHSLTTNIMEILRGDFSSANNRDNTYNRVSEDLRSRIEVLKRKVIEKVQHLARLEGEVRSLLKDISQKVAVYSTCL
chain 3: YVATRDNCCILDERFGSYCPTTCGIADFLSTYQTKVDKDLQSLEDILHQVENKTSEVKQLIKAIQLTYNPDESSKPNMIDAATLKSRKMLEEIMKYEASILTHDSSIEEIMKDIRNLEDIRKTLPSGCFNTPSIEKP
notes: range 31-194;range 2716-3310;range 20-151;range 1761-1786;range 27-132;range 1579-1609; Chains in order: Chimera-α5, Chimera-β1, Chimera-γ1; also called Combination-3

- Kd (α6β1 integrin [3]): 0.59 nM
B2: Human laminin 511E8 fragment (human laminin α5β1γ1E8) (other)
chain 1: HHHHHHAAEDAAGQALQQADHTWATVVRQGLVDRAQQLLANSTALEEAMLQEQQRLGLVWAALQGARTQLRDVRAKKDQLEAHIQAAQAMLAMDTDETSKKIAHAKAVAAEAQDTATRVQSQLQAMQENVERWQGQYEGLRGQDLGQAVLDAGHSVSTLEKTLPQLLAKLSILENRGVHNASLALSASIGRVRELIAQARGAASKVKVPMKFNGRSGVQLRTPRDLADLAAYTALKFYLQGPEPEPGQGTEDRFVMYMGSRQATGDYMGVSLRDKKVHWVYQLGEAGPAVLSIDEDIGEQFAAVSLDRTLQFGHMSVTVERQMIQETKGDTVAPGAEGLLNLRPDDFVFYVGGYPSTFTPPPLLRFPGYRGCIEMDTLNEEVVSLYNFERTFQLDTAVDRPCARSKSTGDPWLTDGSYLDGTGFARISFDSQISTTKRFEQELRLVSYSGVLFFLKQQSQFLCLAVQEGSLVLLYDFGAGLKKAVPLQPPPPLTSASKAIQVFLLGGSRKRVLVRVERATVYSVEQDNDLELADAYYLGGVPPDQLPPSLRRLFPTGGSVRGCVKGIKALGKYVDLKRLNTTGVSAGCTADLLVGRAMTFHGHGFLRLALSNVAPLTGNVYSGFGFHSAQDSALLYYRASPDGLCQVSLQQGRVSLQLLRTEVKTQAGFADGAPHYVAFYSNATGVWLYVDDQLQQMKPHRGPPPELQPQPEGPPRLLLGGLPESGTIYNFSGCISNVFVQRLLGPQRVFDLQQNLGSVNVSTGCAPALQAQTPGLGPRGLQATARKASRRSRQPARHPA
chain 2: LQHSAADIARAEMLLEEAKRASKSATDVKVTADMVKEALEEAEKAQVAAEKAIKQADEDIQGTQNLLTSIESETAASEETLFNASQRISELERNVEELKRKAAQNSGEAEYIEKVVYTVKQSAEDVKKTLDGELDEKYKKVENLIAKKTEESADARRKAEMLQNEAKTLLAQANSKLQLLKDLERKYEDNQRYLEDKAQELARLEGEVRSLLKDISQKVAVYSTCL
chain 3: EANDILNNLKDFDRRVNDNKTAAEEALRKIPAINQTITEANEKTREAQQALGSAAADATEAKNKAHEAERIASAVQKNATSTKAEAERTFAEVTDLDNEVNNMLKQLQEAEKELKRKQDDADQDMMMAGMASQAAQEAEINARKAKNSVTSLLSIINDLLEQLGQLDTVDLNKLNEIEGTLNKAKDEMKVSDLDRKVSDLENEAKKQEAAIMDYNRDIEEIMKDIRNLEDIRKTLPSGCFNTPSIEKP
notes: range 2534-3327;range 1561-1786;range 1362-1609; Heterotrimer of α5E8, β1E8 and γ1E8, expressed in 293-F cells; also called LM511E8; LM511 E8; not shown: HA tag, N-terminal; FLAG tag, N-terminal
